The series can be described thus: label from the status in PepcDB records.
“MNGFVQWMEVKLMPIANKFGSQRHMTAIRKGLIATMPLTIVGSFFTIFQNIPIEAYTKLIEPYQAILDIPSRYTMGLLALYATFGIASSLAKSYKLDSLTCGILALMAFLVTAAPPTRVFEDVDNVITAGRYINLANLGSASLFGAIVTALLSVEIYRFFIEKDIMIKMPDGVPPEVSNSFIALIPGAVILLLFWVIRHVIGFDLNGFLSTLLMPLKGILAGNSLFGGLLTVFLICFFWVLGIHGPAIMGPVIRPFWDMSIAENLEAFTNGANVHQLPNIFTEQFLQWFIWIGGAGTTLSLVVLMMFSKSTYLKSLGRLSFLPGLFNINEPVIFGTPIVMNPILGIPFIVAPLITTTLSYFLTVANIIPMMAARLAFAIPAPIAAWMSTNWSFSAAVLVIVNFLITMAIYYPFFKVYEKQQLDKEAEELAAEQAAKN”: the protein production result is “failed”. Turning to “MPEGHRATAIYFRHLLLIRVEIENIVNTLAICRHTFYISSLSLPCNLNKLIIMENLQSNLFYSLAGVAAVASLASCTNKQKTTEQKPLNIVYIMTDDHTAQMMSCYDTRYMETPNLDRIAADGVRFTQSFVANSLSGPSRACMITGKHSCANKFYDNTTCVFDSSQQTFPKLLQKVGYQTALVGKWHLESLPSGFNYWQIVPGQGDYYNPAFITQDNDTIQKHGYITNLITDDAIDWMENKRDPEKPFCLLIHHKAIHRNWMADTCNLALYEDKTFPLPDNFFDDYEGRPAAAAQEMSIVKDMDMIYDLKMLRPNEKSRLRSLYERFLGRMDEGQRAAWDKFYAPIIDDFYKQNLTGKELANWKFQRYMRDYMKTVKSLDDNVGRVLDYLKEKGLLDNTLVVYTSDQGFYMGEHGWFDKRFMYEESMRTPLIMRLPKGFDRRGDITEMVQNIDYAPTFLELAGAEIPADIHGVSLLPLLKGEHPKDWRKSLYYHFYEYPAEHMVKRHYGVRTERYKLIHFYNDINWWELYDMQADPSEMHNLYGEAEYEPVVKELKDELLKLQEQYNDPVRFSPERDKE”, the protein production entry is given as “failed”. The same measure for “MDMYSMKISEGVERIDGVTANSYLLTLDGKNILIDTGTAGGGKKIIDYFNKNGTKPDYVIVTHHHADHVGGLKEISERFNPEIYVPDLEMKIIRGEEDPPKPRSFFGRMITGMLKFEPVKDVKPVSKASIPGIEEMATPGHTIGSTSYIVEDLHILFSGDAAVESGGELKINKSFSYEINSAERSLEIIKGMKGYLVLPGHGDKVQLLEHHHHHH”: “not failed”. The same measure for “MINSFKSVFLTIRYFIQNDLATQASALTYRTILSIVPMLAVLIGIAKGFGIQQVVHDWLKEYLPGHQQELEQALGYVENYLAQVQGGIFVGVGLIVLLYTVFSLIATVEDTFTDIWQTNKRRTWKRRVIDYMGAFFLLPILITASSGLTLMMTTIKGTYFSEYILFGPMLELILNLIPYVIIVLLFTGMYIVLPTVNVRFWPAFISGVLAGIVFQIFQALYISGILWISKYNAIYGSFAAVPLLLLWIQLSWTIVLFGAQLSFSIQNVRKFAFERDTTNVSRRYIDFITIVVASLIVKRFISDERRPHTADSLAEESKAPIRLVSEAIHRLLSIEAITEVNYAHDPKAEFFSPAIDPEKITVGFILDRIDRYGSEHFKVDNKVRFAPEWQAIEDSRQSLHIPPADTLLKNL”: “failed”; for “MATKIDKEACRAAYNLVRDDGSAVIWVTFRYDGATIVPGDQGADYQHFIQQCTDDVRLFAFVRFTTGDAMSKRSKFALITWIGEDVSGLQRAKTGTDKTLVKEVVQNFAKEFVISDRKELEEDFIRSELKKAGGANYDAQSE”: “not failed”; for “MSFSADALEGGLSSLKLAADKYRSILNDEKTGNIRWRYGGPPIFDTVNKLFEEERTHVQWRYDNPPDFNSVNQLFEEGQTKVWPEGSLEETVQNAIKSWEMEFSHKIRLQDFKTINPEKFKLFVNGREGLSAEETLRLGSYNALLKNSLPEEFQYYKPEEESFESSHDAFRSALPRGFAWEILSVYSGPPVIAFKFRHWGYFEGTFKGHAPTGEMVQFLGLGVLKVDESLRAEEIEIYYDPGELFGGLLKGPPISETKTTDSGDNTAEKQSCPFTH”: “failed”. In the case of “MSEEEQGSGTTTGCGLPSIEQMLAANPGKTPISLLQEYGTRIGKTPVYDLLKAEGQAHQPNFTFRVTVGDTSCTGQGPS” it was “failed”; in that of “MRIRLFAFCLLLGGCQSQLPPLPDWQSPEGRDDPQTGRIVELRSGVTLSPQQLVARLAAAPRVIVGEKHDNPDHHAVELWLAQALGEYRAQGSLLLEMLDPGQQPRVDAVRAQLGNGKPVANLEEALDWQKGWDWTQYGPLVSWAVAQPAPLLAANLQRSEIMRIYRERPPLPGTASRRDSVRLPLLAQIRESHCGMLPDDQLPAMLAVQQQRDRRMAERLRDAPRPAMLVAGSFHARRDLGVPVHLRDLGAEKGTQVLMLVEAGQAVTTREADYAWYTPAQPDKDYCAEMKKARLEHHHHHH”, “failed”.

These data come from a protein production outcome set (Wang et al. 2014).
